Molecular target: 6-phosphogluconate dehydrogenase from Corynebacterium glutamicum ATCC 13032 (Corynebacterium glutamicum ATCC 13032)
Test: SEC; analytical, Superdex 200 Increase 10/300 GL; 1 ml at 1 mg/ml; 40 mM Tris-HCl pH 8.0, 150 mM NaCl; mass from a calibration curve

Substance: 6-phosphogluconate dehydrogenase from Corynebacterium glutamicum ATCC 13032 (enzyme)
- stoichiometry N: 2
